The target in this assay is SOD1-His (not stated (human or mouse cDNA cloned)) (UniProt P00441).
SOD1-His (not stated (human or mouse cDNA cloned)), sequence (P00441 whole entry): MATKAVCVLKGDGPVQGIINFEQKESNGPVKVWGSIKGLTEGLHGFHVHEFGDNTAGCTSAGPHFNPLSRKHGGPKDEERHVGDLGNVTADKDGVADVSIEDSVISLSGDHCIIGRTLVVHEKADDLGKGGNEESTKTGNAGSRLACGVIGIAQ

YWHAE protein purified by His tag from Pichia pastoris, sequence (P62258 whole entry): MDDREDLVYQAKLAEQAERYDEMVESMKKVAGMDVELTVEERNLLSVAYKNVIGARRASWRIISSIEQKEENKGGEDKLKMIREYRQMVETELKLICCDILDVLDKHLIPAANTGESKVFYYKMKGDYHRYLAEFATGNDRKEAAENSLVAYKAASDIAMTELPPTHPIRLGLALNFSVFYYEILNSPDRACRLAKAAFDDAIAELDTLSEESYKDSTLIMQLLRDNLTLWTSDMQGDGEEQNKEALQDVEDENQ

“YWHAE protein purified by His tag from Pichia pastoris (from UniProt P62258 1-255) (natural protein)”: the SOD1 activity of purified SOD1 incubated with purified YWHAE at 1:1 for 0-15 h at 4 °C in SOD1 activity assay buffer, against SOD1 plus buffer; value at 4 h is 40%.

The values above are taken from publication PMC9966940.
